Data from CN110404066A (QILU PHARMACEUTICAL CO LTD, dated 2019).

Experiments:
PD-1抗原 [1] = molecular target: T1, PD-1抗原 (UniProt Q15116 25-167, limits assumed); test: SPR (Biacore T200), antibody captured by anti-human Fc on CM5, PD-1 antigen as analyte, 1:1 model, second repeat
PD-1抗原 [2] = molecular target: T1, PD-1抗原; test: SPR (Biacore T200), antibody captured by anti-human Fc on CM5, PD-1 antigen as analyte, mean of two repeats
PD-1抗原 [3] = molecular target: T1, PD-1抗原; test: SPR (Biacore T200), antibody captured by anti-human Fc on CM5, PD-1 antigen as analyte, 1:1 model, first repeat

T1 sequence (Q15116 25-167 limits assumed): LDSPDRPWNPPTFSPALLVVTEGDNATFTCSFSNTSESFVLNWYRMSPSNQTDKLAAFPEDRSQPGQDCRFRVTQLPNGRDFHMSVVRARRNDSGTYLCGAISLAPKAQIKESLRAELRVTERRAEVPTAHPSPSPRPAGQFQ

B1: 抗人PD-1的单克隆抗体ZMR01 (antibody, V domains shown)
VH: QVQLVQSGAEVKKPGASVKVSCKASGYTFTNYWIHWVRQAPGQGLEWMGEIDPYDSYTNYNQKFKGRVTMTVDKSTSTVYMELSSLRSEDTAVYYCARPGFTYGGMDFWGQGTLVTVSS
VL: DIQMTQSPSSLSASVGDRVTITCKSSQSLFNSGNQKNYLAWYQQKPGKVPKLLIYGASTRDSGVPYRFSGSGSGTDFTLTISSLQPEDVATYYCQNDHYYPYTFGGGTKVEIK
- Kd (PD-1抗原 [1]): 1.82 nM
- Kd (PD-1抗原 [2]): 1.87 nM
- Kd (PD-1抗原 [3]): 1.91 nM
